{
  "source": "patent US20160243251",
  "test_in_all_cases": "FP",
  "key": {"[1]": {"system": "T1, TMR-(CH2)5-DKDRDRDR-NH2 (synthetic)", "T1 sequence": "KRRR", "conditions": "2 mM NaCl, pH 7.4"}, "[2]": {"system": "KRRRC(-TMR)-NH2 (LKLRLRLRLC(-TMR)-NH2) (synthetic)", "conditions": "2 mM NaCl, pH 7.4; p253 text gives 46 ± 9"}, "[3]": {"system": "TMR-DRDRDRDK-NH2 (synthetic)", "conditions": "2 mM NaCl, pH 7.4"}, "[4]": {"system": "T2, TMR-LKDRLRDR-NH2 (synthetic)", "T2 sequence": "KRRR", "conditions": "2 mM NaCl, pH 7.4"}, "[5]": {"system": "TMR-β3Kβ3Rβ3Rβ3R-NH2 (synthetic)", "conditions": "2 mM NaCl, pH 7.4"}, "[6]": {"system": "TMR-LRL-LRL-LRL-LRL-NH2 (tetra L-homo-arginine) (synthetic)", "conditions": "2 mM NaCl, pH 7.4"}, "[7]": {"system": "TMR-LRS-LRS-LRS-LRS-NH2 (tetra L-2-amino-3-guanidinopropionic acid) (synthetic)", "conditions": "2 mM NaCl, pH 7.4"}, "[8]": {"system": "TMR-RRRR-NH2 (TMR-LRLRLRLR-NH2) (synthetic)", "conditions": "2 mM NaCl, pH 7.4"}, "[9]": {"system": "TMR-RRRR (TMR-LRLRLRLR, C-terminal carboxylate) (synthetic)", "conditions": "CITED Xiong et al; pH 7.4; DNA assumed same 30-mer; cited from earlier work"}, "[10]": {"system": "TMR-RRRK-NH2 (TMR-LRLRLRLK-NH2) (synthetic)", "conditions": "2 mM NaCl, pH 7.4"}, "[11]": {"system": "TMR-KKKK-NH2 (TMR-LKLKLKLK-NH2) (synthetic)", "conditions": "2 mM NaCl, pH 7.4"}, "[12]": {"system": "TMR-β3Rβ3Rβ3Rβ3K-NH2 (synthetic)", "conditions": "2 mM NaCl, pH 7.4"}, "[13]": {"system": "T3, TMR-DKDRDRDR-NH2 (synthetic)", "T3 sequence": "KRRR", "conditions": "2 mM NaCl, pH 7.4"}, "[14]": {"system": "T4, TMR-KRRR-NH2 (TMR-LKLRLRLR-NH2) (synthetic)", "T4 sequence": "KRRR", "conditions": "2 mM NaCl, pH 7.4"}, "[15]": {"system": "T5, TMR-KRRR (TMR-LKLRLRLR, C-terminal carboxylate) (synthetic)", "T5 sequence": "KRRR", "conditions": "CITED Xiong et al; pH 7.4; DNA assumed same 30-mer; cited from earlier work"}, "[16]": {"system": "T6, TMR-(CH2)5-KRRR-NH2 (L) (synthetic)", "T6 sequence": "KRRR", "conditions": "2 mM NaCl, pH 7.4"}},
  "data": [
    {"sequence": "GACGACTAGGACGACGACGAGGATGACGAC (double strand) [30-mer dsDNA]", "values": [
      {"measurement": "Kd", "setting": "[1]", "result": 47, "unit": "nM"},
      {"measurement": "Kd", "setting": "[2]", "result": 54, "unit": "nM"},
      {"measurement": "Kd", "setting": "[3]", "result": 37, "unit": "nM"},
      {"measurement": "Kd", "setting": "[4]", "result": 36, "unit": "nM"},
      {"measurement": "Kd", "setting": "[5]", "result": 41, "unit": "nM"},
      {"measurement": "Kd", "setting": "[6]", "result": 13, "unit": "nM"},
      {"measurement": "Kd", "setting": "[7]", "result": 129, "unit": "nM"},
      {"measurement": "Kd", "setting": "[8]", "result": 31, "unit": "nM"},
      {"measurement": "Kd", "setting": "[9]", "result": 236, "unit": "nM"},
      {"measurement": "Kd", "setting": "[10]", "result": 28, "unit": "nM"},
      {"measurement": "Kd", "setting": "[11]", "result": 53, "unit": "nM"},
      {"measurement": "Kd", "setting": "[12]", "result": 49, "unit": "nM"},
      {"measurement": "Kd", "setting": "[13]", "result": 44, "unit": "nM"},
      {"measurement": "Kd", "setting": "[14]", "result": 46, "unit": "nM"},
      {"measurement": "Kd", "setting": "[15]", "result": 197, "unit": "nM"},
      {"measurement": "Kd", "setting": "[16]", "result": 46, "unit": "nM"}
    ]}
  ]
}
